Molecular target: the molecule itself
Assay: SAXS

B1: Human PKG Iβ LZ:CNB-A/B (residues 1-369) (domain or fragment, UniProt Q13976-2 1-369, looked up)
chain: MGTLRDLQYALQEKIEELRQRDALIDELELELDQKDELIQKLQNELDKYRSVIRPATQQAQKQSASTLQGEPRTKRQAISAEPTAFDIQDLSHVTLPFYPKSPQSKDLIKEAILDNDFMKNLELSQIQEIVDCMYPVEYGKDSCIIKEGDVGSLVYVMEDGKVEVTKEGVKLCTMGPGKVFGELAILYNCTRTATVKTLVNVKLWAIDRQCFQTIMMRTGLIKHTEYMEFLKSVPTFQSLPEEILSKLADVLEETHYENGEYIIRQGARGDTFFIISKGTVNVTREDSPSEDPVFLRTLGKGDWFGEKALQGEDVRTANVIAAEAVTCLVIDRDSFKHLIGGLDDVSNKAYEDAEAKAKYEAEAAFFAN
binding result: binds
